Results: PMC5667986

Target: low-density lipoprotein receptor-related protein-1 (LRP-1), endogenous, human cells (human (endogenous in FTC-133))

biotin-based internalisation of cell surface β1-integrin in FTC-133 cells (10 min at 37°C), decrease with 500 nM RAP against untreated cells: 2 fold
percentage of Rab5a early endosomes positive for β1-integrin in FTC-133 cells (confocal), reduction with 500 nM RAP against control cells: 25%
Substance: β1-integrin, endogenous, human cells (from UniProt P05556 21-798) (receptor)
